This assay addresses HLA-DR on rheumatoid synovial fluid mononuclear cells (human). Briefly: cell-based or functional assay.

For the substance “anti-HLA-DR monoclonal antibody L243 (ATCC)”, the inhibition of rheumatoid synovial fluid T cell proliferation to p78 lay within 66 to 84%.

Values taken from patent US6995240.
